Experimental data from US20110045007A1.

What was measured:
2F8-HG F273A (human) = assay: non-covalent nano-electrospray mass spectrometry, 1 µM; self-association
2F8-HG F273L (human) = assay: as above

Binder | percentage molecules present as monomers (2F8-HG F273A (human)) | percentage molecules present as monomers (2F8-HG F273L (human))
2F8-HG F273A (antibody, part only; not given: 2F8 variable domains, not shown: a dimerising Fc or GST) heavy, part: ASTKGPSVFPLAPCSRSTSESTAALGCLVKDYFPEPVTVSWNSGALTSGVHTFPAVLQSSGLYSLSSVVTVPSSSLGTKTYTCNVDHKPSNTKVDKRVAPEFLGGPSVFLFPPKPKDTLMISRTPEVTCVVVDVSQEDPEVQFNWYVDGVEVHNAKTKPREEQFNSTYRVVSVLTVLHQDWLNGKEYKCKVSNKGLPSSIEKTISKAKGQPREPQVYTLPPSQEEMTKNQVSLTCLVKGFYPSDIAVEWESNGQPENNYKTTPPVLDSDGSFALYSRLTVDKSRWQEGNVFSCSVMHEALHNHYTQKSLSLSLGK | > 80% | –
2F8-HG F273L (antibody, part only; not given: 2F8 variable domains, not shown: a dimerising Fc or GST) heavy, part: ASTKGPSVFPLAPCSRSTSESTAALGCLVKDYFPEPVTVSWNSGALTSGVHTFPAVLQSSGLYSLSSVVTVPSSSLGTKTYTCNVDHKPSNTKVDKRVAPEFLGGPSVFLFPPKPKDTLMISRTPEVTCVVVDVSQEDPEVQFNWYVDGVEVHNAKTKPREEQFNSTYRVVSVLTVLHQDWLNGKEYKCKVSNKGLPSSIEKTISKAKGQPREPQVYTLPPSQEEMTKNQVSLTCLVKGFYPSDIAVEWESNGQPENNYKTTPPVLDSDGSFLLYSRLTVDKSRWQEGNVFSCSVMHEALHNHYTQKSLSLSLGK | – | > 80%
